# Experimental data reported in patent publication US20160051688A1 (Indiana University Research and Technology Corporation, priority 2010, published 2016).
# Legend:
# GPR119 = target: T1, GPR119 (Homo sapiens, UniProt Q8TDV5); conditions: CHO cells expressing GPR119; cited from earlier work
# T1 construct: expressed in transfected cells; host or cells: CHO
# T1 sequence (Q8TDV5 1-335): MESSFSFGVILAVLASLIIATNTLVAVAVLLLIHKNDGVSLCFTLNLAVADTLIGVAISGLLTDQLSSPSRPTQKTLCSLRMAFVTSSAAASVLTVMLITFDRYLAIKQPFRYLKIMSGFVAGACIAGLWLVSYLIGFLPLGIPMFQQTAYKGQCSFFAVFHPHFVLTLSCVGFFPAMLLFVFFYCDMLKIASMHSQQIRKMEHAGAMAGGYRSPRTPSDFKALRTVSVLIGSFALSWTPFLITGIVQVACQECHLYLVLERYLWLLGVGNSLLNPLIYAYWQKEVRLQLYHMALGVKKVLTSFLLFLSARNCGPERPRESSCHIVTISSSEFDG
# glucagon receptor = glucagon receptor (UniProt P47871); experiment: cell-based or functional assay
# Chain of glucagon receptor (P47871 26-477 limits assumed): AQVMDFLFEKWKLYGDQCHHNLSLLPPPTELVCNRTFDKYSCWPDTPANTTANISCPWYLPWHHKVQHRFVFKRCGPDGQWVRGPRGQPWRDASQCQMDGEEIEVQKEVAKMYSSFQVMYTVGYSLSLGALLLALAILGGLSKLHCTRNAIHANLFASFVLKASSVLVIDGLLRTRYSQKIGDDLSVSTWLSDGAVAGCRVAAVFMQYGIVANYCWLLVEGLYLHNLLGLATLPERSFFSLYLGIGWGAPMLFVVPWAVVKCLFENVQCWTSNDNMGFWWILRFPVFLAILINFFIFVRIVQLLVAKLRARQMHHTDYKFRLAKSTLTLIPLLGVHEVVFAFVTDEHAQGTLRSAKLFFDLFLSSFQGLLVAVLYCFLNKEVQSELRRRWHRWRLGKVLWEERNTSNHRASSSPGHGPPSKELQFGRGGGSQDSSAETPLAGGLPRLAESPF
# GLP-1 receptor = GLP-1 receptor (UniProt P43220); experiment: cell-based or functional assay
# Chain of GLP-1 receptor (P43220 24-463 limits assumed): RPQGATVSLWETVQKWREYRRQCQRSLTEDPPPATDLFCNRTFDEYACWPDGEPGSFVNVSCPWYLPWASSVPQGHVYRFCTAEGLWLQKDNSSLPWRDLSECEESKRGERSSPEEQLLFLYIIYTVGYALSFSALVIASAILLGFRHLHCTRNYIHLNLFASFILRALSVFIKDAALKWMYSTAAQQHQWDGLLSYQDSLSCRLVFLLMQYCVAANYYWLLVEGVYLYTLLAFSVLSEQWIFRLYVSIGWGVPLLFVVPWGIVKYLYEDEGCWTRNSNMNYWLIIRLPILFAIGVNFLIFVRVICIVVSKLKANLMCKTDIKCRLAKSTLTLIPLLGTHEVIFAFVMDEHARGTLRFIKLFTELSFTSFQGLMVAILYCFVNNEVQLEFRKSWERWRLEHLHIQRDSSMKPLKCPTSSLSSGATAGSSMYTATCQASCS
Glucagon IC50 (nM); PA = partial antagonist (glucagon receptor),Compound,cAMP levels (GPR119),Glu ICso (glucagon receptor),Glucagon IC50 (glucagon receptor),GLP-1 EC50 (GLP-1 receptor),GLP-1 ECso (GLP-1 receptor)
–,CCCCCCCCCCCCCCCCOC[C@@H](O)COP(=O)([O-])OCC[N+](C)(C)C [lyso-platelet activating factor],increased cAMP levels,–,–,–,–
–,"E9, K12, E16 glucagon(6-39) Cex peptide (Peptide 1 of Table 13)",–,762 nM,762 nM,–,–
–,"D9, K12E16(Lactam) glucagon(6-39) Cex peptide (Peptide 4 of Table 13)",–,828 nM,828 nM,18 nM,119 nM
49 nM,"[E9, E16K20(lactam), D28]G(2~29) (peptide)",–,–,–,–,–
–,platelet-activating factor,increased cAMP levels,–,–,–,–
–,"E9, K12E16(lactam) glucagon(6-39) Cex peptide (Peptide 2 of Table 13)",–,2010 nM,2010 nM,63 nM,63 nM
–,"E9, E16K20(lactam) glucagon(6-39) Cex peptide (Peptide 3 of Table 13)",–,42 nM,42 nM,36 nM,36 nM
